Residue numbers refer to the chain shown, from its start.

The values below come from paper PMC8748511 (Nature Communications, 2022).

B1: H5 (VHH)
VHH: QVQLVESGGGLVQPGGSLRLSCAASGVTLDDYAIGWFRQAPGKEREGVSFITSSDGSTFYVDSVKGRFTIARDNAKNTVYLQMNALTPEDTAVYYCAVGPSFSSTGSTYYRSELPWDYDYWGQGTQVTVSS
B2: H9 (VHH)
VHH: B1 VHH with V27F, G35A, F59Y, A71S, A85D, S104Y
B3: H10 (VHH)
VHH: B1 VHH with V27F, F59Y, T69A, A71S, A85S, S104R, E113V
B4: H11 (VHH)
VHH: B1 VHH with V27L, F59Y, A71S, A85S, S104Y, E113T
B5: H7 (VHH)
VHH: B1 VHH with V27F, F59Y, D62A, A71S, A85D, S104Y
B6: H6 (VHH)
VHH: B1 VHH with V27F, F59Y, A71S, A85S, S104Y, E113V
B7: H8 (VHH)
VHH: B1 VHH with V27F, V48I, F59Y, A71S, A85D, S104Y

This experiment concerns the target SARS-CoV-2 spike receptor binding domain (RBD) (SARS-CoV-2, founder (Wuhan-Hu-1) …, UniProt P0DTC2, amine-PEG3-biotin attached with sortase A at the C-terminal sortase motif (for SPR)).
In the case of B1, the binding result is recorded as “binds”.

As to B2, the binding result is given as “binds”.

As to B3, the binding result is listed as “binds”.

Regarding B4, the binding result is on record as “binds”. As to B5, the binding result is given as “binds”.

For B6, the binding result is recorded as “binds”. Then B7, with “binds”.
